US20120316071A1 (published 2012)
Positions count from the first letter of the chain named. Names may count otherwise. Blank lines part the entries; values can stand above or below the binder they belong to.

What was measured:
[1] = biological target: T1, Recombinant Human DLL4 (delta-like protein 4) (human, UniProt Q9NR61 27-524); experiment: ECL (MSD) multispot binding assay, antigen spotted on plate, Fab in solution;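 note: purified Fab incubated 1 h at 20 °C, detected via TAG-labelled antibody electrochemiluminescence, antigen spot compared with the blank in the same well, ratio at least 4 counted as hit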
T1 construct: Bought recombinant human DLL4 (R&D Systems Cat#1506-D4/CF); also called rHuman DLL4

Recombinant Human DLL4 = biological target: T2, Recombinant Human DLL4 (human, UniProt Q9NR61 27-524); experiment: ELISA, DLL4 coated on the plate, Fab at 100 nM, signal minus blank
T2 construct: Bought recombinant human DLL4 (R&D Systems Cat#1506-D4/CF); also called delta-like protein 4; Delta-like 4

B1: Fab VH1-46_IGHD6-6*01_IGHJ1*01 S102A/S103P/S104F/H111F (APFF) & L6_IGKJ1*01 S31Y (Fab, V domains shown)
VH: QVQLVQSGAEVKKPGASVKVSCKASGYTFTSYYMHWVRQAPGQGLEWMGIINPSGGSTSYAQKFQGRVTMTRDTSTSTVYMELSSLRSEDTAVYYCAREEYAPFSAEYFQFWGQGTLVTVSS
VL: EIVLTQSPATLSLSPGERATLSCRASQSVSYYLAWYQQKPGQAPRLLIYDASNRATGIPARFSGSGSGTDFTLTISSLEPEDFAVYYCQQRSNWPPWTFGQGTKVEIKR
notes: Fab made in E. coli; The constant parts (CH1 with His6 and Flag tags from plasmid A, kappa CL from plasmid C) are not added here; also called APFF & S31Y
ECL signal [1]: 188000
Signal/Blank [1]: 662

B2: Fab VH1-46_IGHD6-6*01_IGHJ1*01 S102A/S103P/S104F/H111F (APFF) & L6_IGKJ1*01 S31E (Fab, V domains shown)
VH: B1 VH
VL: B1 VL with Y31E
notes: Fab made in E. coli; The constant parts (CH1 with His6 and Flag tags from plasmid A, kappa CL from plasmid C) are not added here; also called APFF & S31E
ECL signal [1]: 171000
Signal/Blank [1]: 517

B3: Fab VH1-46_IGHD6-6*01_IGHJ1*01 S102A/S103P/S104F/H111F (APFF) & L6_IGKJ1*01 S30T (Fab, V domains shown)
VH: B1 VH
VL: B1 VL with S30T, Y31S
notes: Fab made in E. coli; The constant parts (CH1 with His6 and Flag tags from plasmid A, kappa CL from plasmid C) are not added here; also called APFF & S30T
ECL signal [1]: 136000
Signal/Blank [1]: 348

B4: Fab VH1-46_IGHD6-6*01_IGHJ1*01 S102A/S103P/S104F/H111F (APFF) & L6_IGKJ1*01 S31L (Fab, V domains shown)
VH: B1 VH
VL: B1 VL with Y31L
notes: Fab made in E. coli; The constant parts (CH1 with His6 and Flag tags from plasmid A, kappa CL from plasmid C) are not added here; also called APFF & S31L
Signal/Blank [1]: 373

B5: Fab VH5-51_IGHD5-18*01>3_IGHJ4*01 G100K/G104T G24T/S28R/G35V (H:KT TRV) & V3-4_IGLJ1*01 (Fab, V domains shown)
VH: EVQLVQSGAEVKKPGESLKISCKTSGYRFTSYWIVWVRQMPGKGLEWMGIIYPGDSDTRYSPSFQGQVTISADKSISTAYLQWSSLKASDTAMYYCARRKYSYTYDYFDYWGQGTLVTVSS
VL: QTVVTQEPSFSVSPGGTVTLTCGLSSGSVSTSYYPSWYQQTPGQAPRTLIYSTNTRSSGVPDRFSGSILGNKAALTITGAQADDESDYYCVLYMGSGISYVFGTGTKVTVL
notes: Fab with the parent (unmutated) light chain; expressed from plasmid A (CH1, His6 and Flag tags) and plasmid E (lambda CL); also called H:KT TRV & L:wt
ELISA Signal-blank (100 nM Fab) (Recombinant Human DLL4): 0.393

B6: Fab VH5-51_IGHD5-18*01>3_IGHJ4*01 G100K/G104T G24T/S28R/G35V (H:KT TRV) & V3-4_IGLJ1*01 M94D (Fab, V domains shown)
VH: B5 VH
VL: B5 VL with M94D
notes: Fab; expressed from plasmid A (CH1, His6 and Flag tags) and plasmid E (lambda CL)
ELISA Signal-blank (100 nM Fab) (Recombinant Human DLL4): 0.07

B16: Fab VH5-51_IGHD5-18*01>3_IGHJ4*01 G100K/G104T G24T/S28R/G35V (H:KT TRV) & V3-4_IGLJ1*01 M94A (Fab, V domains shown)
VH: B5 VH
VL: B5 VL with M94A
notes: as for B6
ELISA Signal-blank (100 nM Fab) (Recombinant Human DLL4): 0.216

B18: Fab VH5-51_IGHD5-18*01>3_IGHJ4*01 G100K/G104T G24T/S28R/G35V (H:KT TRV) & V3-4_IGLJ1*01 M94E (Fab, V domains shown)
VH: B5 VH
VL: B5 VL with M94E
notes: as for B6
ELISA Signal-blank (100 nM Fab) (Recombinant Human DLL4): 0.171

B19: Fab VH5-51_IGHD5-18*01>3_IGHJ4*01 G100K/G104T G24T/S28R/G35V (H:KT TRV) & V3-4_IGLJ1*01 M94F (Fab, V domains shown)
VH: B5 VH
VL: B5 VL with M94F
notes: as for B6
ELISA Signal-blank (100 nM Fab) (Recombinant Human DLL4): 0.317

The next lines start with the values.

ELISA Signal-blank (100 nM Fab) (Recombinant Human DLL4): 0.315
B7: Fab VH5-51_IGHD5-18*01>3_IGHJ4*01 G100K/G104T G24T/S28R/G35V (H:KT TRV) & V3-4_IGLJ1*01 M94V (Fab, V domains shown)
VH: B5 VH
VL: B5 VL with M94V
notes: as for B6

ELISA Signal-blank (100 nM Fab) (Recombinant Human DLL4): 0.388
B8: Fab VH5-51_IGHD5-18*01>3_IGHJ4*01 G100K/G104T G24T/S28R/G35V (H:KT TRV) & V3-4_IGLJ1*01 M94L (Fab, V domains shown)
VH: B5 VH
VL: B5 VL with M94L
notes: as for B6

ELISA Signal-blank (100 nM Fab) (Recombinant Human DLL4): 0.256
B9: Fab VH5-51_IGHD5-18*01>3_IGHJ4*01 G100K/G104T G24T/S28R/G35V (H:KT TRV) & V3-4_IGLJ1*01 M94P (Fab, V domains shown)
VH: B5 VH
VL: B5 VL with M94P
notes: as for B6

ELISA Signal-blank (100 nM Fab) (Recombinant Human DLL4): 0.598
B10: Fab VH5-51_IGHD5-18*01>3_IGHJ4*01 G100K/G104T G24T/S28R/G35V (H:KT TRV) & V3-4_IGLJ1*01 S57A (Fab, V domains shown)
VH: B5 VH
VL: B5 VL with S57A
notes: as for B6

ELISA Signal-blank (100 nM Fab) (Recombinant Human DLL4): 0.195
B11: Fab VH5-51_IGHD5-18*01>3_IGHJ4*01 G100K/G104T G24T/S28R/G35V (H:KT TRV) & V3-4_IGLJ1*01 M94S (Fab, V domains shown)
VH: B5 VH
VL: B5 VL with M94S
notes: as for B6

ELISA Signal-blank (100 nM Fab) (Recombinant Human DLL4): 0.395
B12: Fab VH5-51_IGHD5-18*01>3_IGHJ4*01 G100K/G104T G24T/S28R/G35V (H:KT TRV) & V3-4_IGLJ1*01 M94T (Fab, V domains shown)
VH: B5 VH
VL: B5 VL with M94T
notes: as for B6

ELISA Signal-blank (100 nM Fab) (Recombinant Human DLL4): 0.197
B13: Fab VH5-51_IGHD5-18*01>3_IGHJ4*01 G100K/G104T G24T/S28R/G35V (H:KT TRV) & V3-4_IGLJ1*01 M94R (Fab, V domains shown)
VH: B5 VH
VL: B5 VL with M94R
notes: as for B6

ELISA Signal-blank (100 nM Fab) (Recombinant Human DLL4): 0.205
B14: Fab VH5-51_IGHD5-18*01>3_IGHJ4*01 G100K/G104T G24T/S28R/G35V (H:KT TRV) & V3-4_IGLJ1*01 M94N (Fab, V domains shown)
VH: B5 VH
VL: B5 VL with M94N
notes: as for B6

ELISA Signal-blank (100 nM Fab) (Recombinant Human DLL4): 0.451
B15: Fab VH5-51_IGHD5-18*01>3_IGHJ4*01 G100K/G104T G24T/S28R/G35V (H:KT TRV) & V3-4_IGLJ1*01 S58A (Fab, V domains shown)
VH: B5 VH
VL: B5 VL with S58A
notes: as for B6

ELISA Signal-blank (100 nM Fab) (Recombinant Human DLL4): 0.199
B17: Fab VH5-51_IGHD5-18*01>3_IGHJ4*01 G100K/G104T G24T/S28R/G35V (H:KT TRV) & V3-4_IGLJ1*01 M94G (Fab, V domains shown)
VH: B5 VH
VL: B5 VL with M94G
notes: as for B6

ELISA Signal-blank (100 nM Fab) (Recombinant Human DLL4): 0.318
B20: Fab VH5-51_IGHD5-18*01>3_IGHJ4*01 G100K/G104T G24T/S28R/G35V (H:KT TRV) & V3-4_IGLJ1*01 N54A (Fab, V domains shown)
VH: B5 VH
VL: B5 VL with N54A
notes: as for B6

ELISA Signal-blank (100 nM Fab) (Recombinant Human DLL4): 0.442
B21: Fab VH5-51_IGHD5-18*01>3_IGHJ4*01 G100K/G104T G24T/S28R/G35V (H:KT TRV) & V3-4_IGLJ1*01 R56A (Fab, V domains shown)
VH: B5 VH
VL: B5 VL with R56A
notes: as for B6
